# Reference: article doi:10.1101/2021.11.30.470528
# Molecular target: GST affinity tag
# Assay: SEC
# Chain of GST affinity tag (P08515 2-218): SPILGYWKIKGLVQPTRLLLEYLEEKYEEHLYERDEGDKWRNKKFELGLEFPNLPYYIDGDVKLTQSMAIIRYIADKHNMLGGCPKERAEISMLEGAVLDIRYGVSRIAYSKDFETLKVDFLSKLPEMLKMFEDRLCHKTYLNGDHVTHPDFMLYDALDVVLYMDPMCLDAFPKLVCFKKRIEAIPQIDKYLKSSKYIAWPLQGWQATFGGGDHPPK
substance,measurement,value
GST affinity tag,stoichiometry N,2
